T1: cynomolgus CD47 (cynomolgus, UniProt A0A5F8AK49 19-323)
T1 chain: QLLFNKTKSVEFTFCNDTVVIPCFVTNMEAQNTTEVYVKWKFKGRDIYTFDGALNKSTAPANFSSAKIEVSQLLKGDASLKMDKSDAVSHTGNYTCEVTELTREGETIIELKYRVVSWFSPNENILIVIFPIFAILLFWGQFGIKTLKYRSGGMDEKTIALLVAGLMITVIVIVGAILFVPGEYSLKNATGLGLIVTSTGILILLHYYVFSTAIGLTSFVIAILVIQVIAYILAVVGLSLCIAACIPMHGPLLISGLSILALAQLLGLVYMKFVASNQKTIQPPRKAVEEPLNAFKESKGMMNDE


What was measured:
[1] = target: T1, cynomolgus CD47; experiment: FACS binding, C6-cKT14 cells
[2] = target: human CD47 (human, UniProt Q08722 19-323); experiment: cell binding (flow cytometry, C6 cells)
[3] = target: human MDR1 (multidrug resistance protein 1) (UniProt P08183 1-1280); experiment: FACS binding, 293T cells expressing human MDR1

Row | EC50 [3] | Binder | other results
1 |  | 15D3DD/KT14KK/VL6.CDR3mod (antibody) chain 1: EVKVVESGGVLVRPGGSLKLSCAASGFTFSRYTMSWVRQTPEKRLEWVATISSGGGNTYYPDSVKGRFTVSRDNAMSSLYLQMSSLRSEDTALYYCARYGAGDAWFAYWGQGTLVTVSS chain 2: QVQLVQSGAEVKKPGASVKVSCKASGYTFTNYNMHWVRQAPGQRLEWMGTIYPGNDDTSYNQKFKDRVTITADTSASTAYMELSSLRSEDTAVYYCARGGYRAMDYWGQGTLVTVSS chain 3: DVLMTQTPLSLPVSLGDQASISCRSSQSLVHSNGNTYLEWYLQKPGQSPKLLIYKVSNRFSGVPDRFSGSGSGTDFTLKISRVEAEDLGVYYCFQGSHFPRTFGGGTKLEIKRTVAAPSVFIF | EC50 [1]: 44 nM
2 |  | KT14.5F9hu scFv-B1.261.hu1 (bispecific antibody) scFv: not shown heavy: EVQLQESGPGLVKPSETLSLTCTVSGFSLTSYGVHWVRQPPGKGLEWLVVIWSDGSTTYNSALKSRLTISKDNSKNQVSLKLSSVTAADTAVYYCARHGRWLLQRGGAMDYWGQGTMVTVSSASTKGPSVFPLAPSSKSTSGGTAALGCLVKDYFPEPVTVSWNSGALTSGVHTFPAVLQSSGLYSLSSVVTVPSSSLGTQTYICNVNHKPSNTKVDKRVEPKSCDKTHTCPPCPAPELLGGPSVFLFPPKPKDTLMISRTPEVTCVVVDVSHEDPEVKFNWYVDGVEVHNAKTKPREEQYNSTYRVVSVLTVLHQDWLNGKEYKCKVSNKALPAPIEKTISKAKGQPREPQVCTLPPSREEMTKNQVSLSCAVKGFYPSDIAVEWESNGQPENNYKTTPPVLDSDGSFFLVSKLTVDKSRWQQGNVFSCSVMHEALHNHYTQKSLSLSPGK light: DVQMTQSPSSLSASVGDRVTITCRASQNVGSYIAWYQQKPGKSPKALIYSASYRSSGVPSRFSGSGAGTDFTLTISSLQPEDFATYFCQQYNSYPLTFGGGTKLEIKRTVAAPSVFIFPPSDEQLKSGTASVVCLLNNFYPREAKVQWKVDNALQSGNSQESVTEQDSKDSTYSLSSTLTLSKADYEKHKVYACEVTHQGLSSPVTKSFNRGEC | EC50 [2]: 2.7 nM
3 | 8 nM | B1.201 (antibody, V domains shown) VH: EVQLVESGGALMKPGGSLKFSCAASGFTFTNYAMSWVRQTPEKRLEWVATISSGGSNTYYSDSVKGRFTISRDNAKTTLYLQMSGLRSEDTALYYCAKFSNFGRFASWGQGTLVTVSA VL: DVLMTQTPLSLPVSLGDQASISCRFSQSIVHSSGNTYLEWYLQKPGQSPRLLIYKVSNRFFGVPDRISGSGSGTDFTLRISRVEAEDLGVYYCFQGSHVPYTFGGGTKLEIK | 
4 | 14.1 nM | B1.188 (antibody, V domains shown) VH: EVMLVESGGALVKPGGSLKLSCAASGFTFSNYAMSWVRQTPEKRLEWVATISSGGSYTYYPDSVKGRFTISRDNARNTLYLQMSSLRSEDTAMYYCARGYGNFAWFAYWGQGTLVTVSA VL: DIQMTQSPLSLPVSLGDQASISCRSSQSIVHSTGNTYLEWYLQKPGQSPKLLIYKVSNRFSGVPDRFSGSGSGTDFTLKISRVEAEDLGVYYCFQGSHVPFTFGSGTKLEIK | 
5 | 4.3 nM | B1.207 (antibody, V domains shown) VH: GVQLVESGGALVKPGGSLKLSCAASGFTFSNYAMSWVRQTPEKRLEWVATISSGGSYTYYPDSVKGRFTISRDNAKTTLYLQMSGLRSEDTALYYCAKYSNYGRFASWGQGTLVTVST VL: DVLMTQTPLSLPVSLGDQASISCRSSQSIVHSSGNTYLEWYLQKPGQSPRLLIYKVSNRFFGVPDRISGSGSGTDFTLRISRVEAEDLGVYYCFQGSHVPYTFGGGTKLEIK | 
6 | 34 nM | B1.27 (antibody, V domains shown) VH: EVKLVESGGGLVKPGGSLKLSCAASGFTFSSYTMSWVRQTPEKRLEWVATVSSGGGNTYYPDSVKGRFTISRDNAKNNLYLQMSSPRSEDTALYYCARYGNYGWFTYWGQGTLVTVSS VL: DVVMTQTPLSLPVSLGDQASISCRSSQNIVHSTGNTYLDWYLQKPGQSPKLLIYKVSNRFSGVPDRFSGSGSGTDFTLKISRVEAEDLGVYFCFQGSHIPRTFGGGTKLEIK | 
7 |  | 15D3DD/KT14KK/B1.27 (antibody) chain 1: EVKVVESGGVLVRPGGSLKLSCAASGFTFSRYTMSWVRQTPEKRLEWVATISSGGGNTYYPDSVKGRFTVSRDNAMSSLYLQMSSLRSEDTALYYCARYGAGDAWFAYWGQGTLVTVSS chain 2: QVQLVQSGAEVKKPGASVKVSCKASGYTFTNYNMHWVRQAPGQRLEWMGTIYPGNDDTSYNQKFKDRVTITADTSASTAYMELSSLRSEDTAVYYCARGGYRAMDYWGQGTLVTVSS chain 3: DVLLTQTPLSLPVSLGDQASISCRSSQNIVHSTGNTYLDWYLQKPGQSPKLLIYKVSNRFSGVPDRFSGSGSGTDFTLKISRVEAEDLGVYFCFQGSHIPRTFGGGTKLEIK | EC50 [1]: 36 nM
8 | 88.2 nM | B1.99 (antibody, V domains shown) VH: EVQLVESGGALVKPGGSLKLSCAASGFTFSNYAMSWVRQTPERRLEWVATISSGGSYTYYPDSVKGRFTISRDNAKNTLYLQMSSLISEDTALYYCTRGYGNFAWFAYWGHGTLVTVSA VL: DVVMTQTPLSLPVSLGDQVSISCRSSQSIVHSYGSTYLEWYLQKPGQSPKLLIYKVSNRFSGVPDRFSGSGSGTDFTLKISRVEAEDLGVYFCFQGSHIPYTFGGGTKLELK | 
9 | 9.2 nM | B1.85 (antibody, V domains shown) VH: EVQLVESGGALVKPGGSLKLSCAASGFTFSNYGVSWVRQTPEKRLEWVATISSSGSYTYYPDIVRGRFTISRDNAKNTLYLQMSSLRSEDTAFYYCARGYGNFAWFAYWGQGTLVTVSA VL: DIQMTQSPLSLPVSLGDQASISCRSSQSIVHSTGNTYLEWYLQKPGQSPKLLIYKVSNRFSGVPDRFSGSGSGTDFTLKINRVEAEDLGVYYCFQGSHVPYTFGGGTKLEIK | 
10 |  | 15D3DD/KT14KK/225v1 (antibody) chain 1: EVKVVESGGVLVRPGGSLKLSCAASGFTFSRYTMSWVRQTPEKRLEWVATISSGGGNTYYPDSVKGRFTVSRDNAMSSLYLQMSSLRSEDTALYYCARYGAGDAWFAYWGQGTLVTVSS chain 2: QVQLVQSGAEVKKPGASVKVSCKASGYTFTNYNMHWVRQAPGQRLEWMGTIYPGNDDTSYNQKFKDRVTITADTSASTAYMELSSLRSEDTAVYYCARGGYRAMDYWGQGTLVTVSS chain 3: DVVMTQTPLSLPVSLGDQASISCRFSQSIVHSNGNTYLEWYLQKPGQSPKLLIYKVSNRFFGVPDRFSGSGSGTDFTLKISRVEAEDLGVYYCFQASHFPRTFGGGTKLEIK | EC50 [1]: 37 nM
11 | 14.8 nM | B1.198 (antibody, V domains shown) VH: EVQLVESGGALVKPGGSLKLSCAASGFTFSNYAMSWVRQTPEKRLEWVATISSGGSYTYYPDSVKGRFTISRDNAKNTLYLQMSSLRSEDTALYYCAKYSNYGRFAYWGQGTLVTVSA VL: DVVMTQTPLSLPVSLGDQASISCRSSQSIVDSNGNTYLEWYLQKPGQSPKLLIYKVSNRFFGVPDRFSGSGSGTDFTLKISRVEAEDLGVYYCFQGSHVPYTFGGGTKLEIK | 
12 | 4.6 nM | B1.223 (antibody, V domains shown) VH: EVKLVESGGALVKPGGSLKLSCAASGFTFSNYAMSWVRQTPEKRLEWVATISSGGSYTYYPDSVKGRFTISRDNAKTTLYLQMSGLRSEDTALYYCAKFSNYGRFASWGQGTLVTVSS VL: DIQMIQSPLSLPVSLGDQASISCRSSQSIVHSSGNTYLEWYLQKPGQSPRLLIYKVSNRFFGVPDRISGSGSGTDFTLRISRVEAEDLGVYYCFQGSHVPYTFGGGTKLELK | 
13 | 14.2 nM | B1.39 (antibody, V domains shown) VH: EVMLVESGGGLVKPGGSLKLSCAASGFTFSSYTMSWVRQTPEKRLEWVATVSSGGGNTYYPDSVKGRFTISRDNAKNNLYLQMSSLRSEDTALYYCARYGNYGWFTYWGQGTLVTVSA VL: DVLMTQTPLSLPVSLGDQASISCRSSQSILHSNGNTYLEWYLQKPGQSPKLLIYKVSNRFSGVPDRFSASGSGTDFTLKISRVEAEDLGIYYCFQGSHVPRTFGGGTKLEIK | 
14 | 16.6 nM | B1.178 (antibody, V domains shown) VH: EAQLVESGGALVKPGGSLKLSCSASGFTFSNYAMSWVRQTPEKRLEWVATISSGGTNTYYPGSVKGRFTIARDNAKNTLYLLMSSLRSEDTALYFCARYSNLAWFASWGQGTLVTVSA VL: DVVMTQTPLSLPVSLGDQASISCRSSQSIVHSNGNTYLEWYLQKPGQSPKFLISKVSNRFSGVPDRFSGSGSGTDFTLKISRVEAEDLGIYYCFQGSHVPYTFGGGTKLEIK | 
15 |  | 15D3DD KT14KK B1.89v1 LC (bispecific antibody) heavy 1: not shown heavy 2: not shown VL: DVLMTQTPLSLPVSLGDQASISCRSSQTIVHSNGNTYLEWYLQKPGQSPKLLIYKVSKRFSGVPDRFSGSGSGTDFTLKISRVEAEDLGVYYCFQASHFPRTFGGGTKLEIK | EC50 [1]: 21 nM
16 | 8.5 nM | B1.30 (antibody, V domains shown) VH: EVMLVESGGGLVKPGGSLKLSCAASGFTFSSYTMSWVRQTPEKRLEWVATISSGGGNTYYPDSVKGRFTISRDNAKNNLYLQMSSLRSEDTALYYCARYYRYDAWFAYWGQGTLVTVSA VL: DVLMTQTPLSLPVSLGDQASISCRSSQSIVHSTGNTYLEWYLQKPGQSPKLLIYKVSNRFSGVPDRFSGSGSGTDFTLKISRVETEDLGVYYCFQGSHVPRTFGGGTKLEIK | 

Reference: patent publication US20230203156A1 (published 2023)
